Several values for one entry are separate records, joined by “and”; a condition that tells them apart may be missing. Identical values can stand only once.
Tests used:
[1] = molecular target: fibrinogen fragment D (human); assay: fluorescence polarisation; competitive fluorescence anisotropy; unlabeled construct titrated into mixtures of fixed [5F]PR–(R1 → R7) with two frag D concentrations; cubic equation, fit together with the direct titrations
[2] = molecular target: fibrinogen fragment D (human); assay: fluorescence polarisation; fluorescence anisotropy; [5F]PR–(R1 → R7) titrated with frag D; 'the same buffer'; quadratic fit, n not fixed; independent, noncooperative sites assumed
[3] = molecular target: fibrinogen fragment D (human); assay: native gel or EMSA; incubated 30 min at 25 °C in 50 mM Hepes, 110 mM NaCl, 5 mM CaCl2, 1 mg/ml PEG-8000, 10 μM FFR-CK and FPR-CK with molar excess of frag D; 6% Tris–glycine gel without SDS, 4 °C; GelCode Blue and fluorescence
[4] = molecular target: fibrinogen fragment D (human); assay: other fluorescence titration; fluorescein-labeled construct at fixed concentration titrated with frag D; fluorescence intensity; 25 °C; 50 mM Hepes, 110 mM NaCl, 5 mM CaCl2, 1 mg/ml PEG-8000, pH 7.4, 10 μM FPR-CK; quadratic fit; n fixed to 1 for the Ala constructs and MP
[5] = molecular target: fibrinogen fragment D (human); assay: other fluorescence titration; fluorescence intensity; 20 mM sodium phosphate, 150 mM NaCl, 1 mg/ml PEG-8000, 10 μM FPR-CK, pH 7.0; n fixed to 1
[6] = molecular target: fibrinogen fragment D (human); assay: other fluorescence titration; fluorescence intensity; 20 mM sodium phosphate, 150 mM NaCl, 1 mg/ml PEG-8000, 10 μM FPR-CK, pH 7.4; n fixed to 1
[7] = molecular target: staphylocoagulase SC(1–660), full-length (Staphylococcus aureus Newman D2 Tager 104); assay: native gel or EMSA; incubated 30 min at 25 °C in 50 mM Hepes, 110 mM NaCl, 5 mM CaCl2, 1 mg/ml PEG-8000, 10 μM FFR-CK and FPR-CK with molar excess of frag D; 6% Tris–glycine gel without SDS, 4 °C; GelCode Blue and fluorescence
[8] = molecular target: fibrinogen fragment D fragment D (Homo sapiens) (UniProt P02671); conditions: cited from earlier work
Chain of fibrinogen fragment D fragment D (Homo sapiens) (P02671 20-866, chain 1 of 3): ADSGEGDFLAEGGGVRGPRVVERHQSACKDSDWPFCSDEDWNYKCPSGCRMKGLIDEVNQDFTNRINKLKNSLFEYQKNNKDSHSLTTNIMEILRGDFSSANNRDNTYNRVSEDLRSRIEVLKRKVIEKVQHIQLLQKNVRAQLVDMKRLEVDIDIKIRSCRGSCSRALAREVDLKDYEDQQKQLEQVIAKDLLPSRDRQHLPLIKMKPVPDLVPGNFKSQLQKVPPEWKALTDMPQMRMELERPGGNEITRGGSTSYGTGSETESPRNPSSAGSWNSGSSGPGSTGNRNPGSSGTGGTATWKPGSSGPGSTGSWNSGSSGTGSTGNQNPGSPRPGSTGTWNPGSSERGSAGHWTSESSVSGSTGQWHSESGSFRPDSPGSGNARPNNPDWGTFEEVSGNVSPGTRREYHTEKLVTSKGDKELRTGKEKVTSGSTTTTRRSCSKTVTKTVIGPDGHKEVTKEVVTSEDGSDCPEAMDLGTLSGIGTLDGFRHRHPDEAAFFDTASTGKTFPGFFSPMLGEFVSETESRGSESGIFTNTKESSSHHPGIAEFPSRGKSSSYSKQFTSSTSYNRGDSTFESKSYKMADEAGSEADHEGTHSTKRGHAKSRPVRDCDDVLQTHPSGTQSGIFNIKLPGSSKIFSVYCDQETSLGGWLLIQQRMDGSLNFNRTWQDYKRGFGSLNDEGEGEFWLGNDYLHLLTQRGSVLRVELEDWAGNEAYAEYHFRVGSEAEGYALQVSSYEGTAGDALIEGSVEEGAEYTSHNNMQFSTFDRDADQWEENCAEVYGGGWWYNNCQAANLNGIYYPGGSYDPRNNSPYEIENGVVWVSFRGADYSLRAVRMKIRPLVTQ
Chain of fibrinogen fragment D fragment D (Homo sapiens) (P02675 31-491, chain 2 of 3, further chain): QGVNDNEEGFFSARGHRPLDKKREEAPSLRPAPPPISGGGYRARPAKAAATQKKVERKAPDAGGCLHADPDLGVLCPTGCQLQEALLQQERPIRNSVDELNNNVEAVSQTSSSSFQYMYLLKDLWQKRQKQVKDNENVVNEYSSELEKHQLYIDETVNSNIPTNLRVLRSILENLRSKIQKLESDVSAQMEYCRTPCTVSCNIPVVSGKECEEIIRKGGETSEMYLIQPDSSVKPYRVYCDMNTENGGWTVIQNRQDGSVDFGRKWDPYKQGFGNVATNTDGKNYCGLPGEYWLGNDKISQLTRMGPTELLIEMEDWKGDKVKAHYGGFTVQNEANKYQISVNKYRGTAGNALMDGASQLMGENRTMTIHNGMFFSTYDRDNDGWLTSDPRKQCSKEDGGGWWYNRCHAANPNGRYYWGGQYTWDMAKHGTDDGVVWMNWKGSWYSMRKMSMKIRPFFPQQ
Chain of fibrinogen fragment D fragment D (Homo sapiens) (P02679 27-453, chain 3 of 3, further chain): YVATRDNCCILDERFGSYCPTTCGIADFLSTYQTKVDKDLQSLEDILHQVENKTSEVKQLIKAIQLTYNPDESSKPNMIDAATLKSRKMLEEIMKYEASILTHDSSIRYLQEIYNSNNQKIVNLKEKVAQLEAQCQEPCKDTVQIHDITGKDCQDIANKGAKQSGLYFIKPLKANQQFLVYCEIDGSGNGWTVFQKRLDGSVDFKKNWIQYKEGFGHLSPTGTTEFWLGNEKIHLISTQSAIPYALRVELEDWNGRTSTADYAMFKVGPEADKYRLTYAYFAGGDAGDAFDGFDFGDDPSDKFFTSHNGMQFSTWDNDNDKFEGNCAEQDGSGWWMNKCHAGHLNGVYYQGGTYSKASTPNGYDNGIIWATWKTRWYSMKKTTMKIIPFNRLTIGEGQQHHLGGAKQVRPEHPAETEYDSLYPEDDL

**Q.** Which stoichiometry N (mol frag D/mol repeat) [1] does the source give for “PR–R1R2R3 (unlabeled competitor) (domain or fragment)” here?
**A.** 3.3 and 3.5 and 2.5

**Q.** With “PR–R1R6R7 (unlabeled competitor) (domain or fragment)” as the substance, how does the Kd [1] read?
**A.** 8 nM

**Q.** And the stoichiometry N (mol frag D/mol repeat) [1]?
**A.** 3

**Q.** Which results are given for “PR–R3R4R7 (unlabeled competitor) (domain or fragment)”?
**A.** Kd [1]: 42 nM; stoichiometry N (mol frag D/mol repeat) [1]: 2.8

**Q.** For “PR–R3R6R7 (unlabeled competitor) (domain or fragment)”, which Kd [1] is on record?
**A.** 42 nM

**Q.** What about the stoichiometry N (mol frag D/mol repeat) [1] of the same substance?
**A.** 3

**Q.** With “[5F]PR–(R1 → R7), full-length C-terminal repeat construct (domain or fragment)” as the substance, how does the stoichiometry N (mol frag D/mol repeat) [2] read?
**A.** 5.2 and 4.8 and 5.1

**Q.** What about the stoichiometry N (frag D per construct) [3] of the same substance?
**A.** 7

**Q.** Which stoichiometry N (mol frag D/mol repeat) [4] does the source give for [5F]PR–R1 (domain or fragment) here?
**A.** 1

**Q.** For [5F]PR–R1R2R3 (domain or fragment), which stoichiometry N (frag D per construct) [3] is on record?
**A.** 3

**Q.** For [5F]PR–R1R6R7 (domain or fragment), which stoichiometry N (frag D per construct) [3] is on record?
**A.** 3

**Q.** What does the source list for [5F]PR–R2 (domain or fragment)?
**A.** Kd [4]: 130 nM; stoichiometry N (mol frag D/mol repeat) [4]: 0.9

**Q.** Which results are given for [5F]PR–R3 (domain or fragment)?
**A.** Kd [4]: 99 nM; stoichiometry N (mol frag D/mol repeat) [4]: 1.1

**Q.** With [5F]PR–R6 (domain or fragment) as the substance, how does the Kd [4] read?
**A.** 115 nM

**Q.** What about the stoichiometry N (mol frag D/mol repeat) [4] of the same substance?
**A.** 0.8

**Q.** For [5F]PR–R7 (domain or fragment), which Kd [5] is on record?
**A.** 3000 nM

**Q.** And the Kd [6]?
**A.** 27 nM

**Q.** And the Kd [4]?
**A.** 112 nM

**Q.** And the stoichiometry N (mol frag D/mol repeat) [4]?
**A.** 0.8

**Q.** For [5F]PR–R7-SETNA (domain or fragment), which Kd [4] is on record?
**A.** 120 nM

**Q.** Which stoichiometry N [7] does the source give for “[5F]ProT, prothrombin labeled at the active site with 5-fluorescein (natural protein)” here?
**A.** 1 mol/mol

**Q.** With “staphylocoagulase PR-R1 (from UniProt P07767)” as the substance, how does the Kd [8] read?
**A.** 36 nM

**Q.** Which stoichiometry N (frag D per SC(1–660)) [3] does the source give for “staphylocoagulase SC(1–660), full-length (natural protein)” here?
**A.** 5 and 6

— paper PMC8761706
